The target of the assay is wild type (WT) Aβ40 peptide (human).

Consider A2V NTF(1–10) (peptide), for which the ThT fibrillization of 25 μM WT Aβ40 co-incubated with A2V NTF(1–10) (1 to 1 and 1 to 6): shortening of the lag phase was 8 h; the ThT signal of the end-point product of 25 μM WT Aβ40 with A2V NTF(1–10) (1 fold and 6 fold), against WT only is 22%.
Turning to Aβ40 A2T variant, full-length (peptide), the ThT fibrillization of 25 μM WT Aβ40 co-incubated with full-length A2T (WT to A2T 1 to 1 and 1 to 2): extension of the lag phase was found to be 8 h.
For the molecule Aβ40 A2V variant, full-length (peptide), the ThT fibrillization of 25 μM WT Aβ40 co-incubated with full-length A2V (WT to A2V 1 to 1 and 1 to 2): shortening of the lag time turned out to be 6 h; the ThT signal at the final plateau of 25 μM WT Aβ40 mixed with two fold full-length A2V, against WT alone worked out at 40%.
For the molecule DTEFRHDSYG [A2T NTF(1–10)], the ThT fibrillization of 25 μM WT Aβ40 co-incubated with A2T NTF(1–10) (1 to 1 and 1 to 6): decrease of the ThT plateau was 20%.
